In patent US9655377, “Methods of controlling fructan synthesis in plants” (COMMONWEALTH SCIENTIFIC AND INDUSTRIAL RESEARCH ORGANISATION):

Legend:
[1] = target: T1, TaMYB13-1 (correctly spliced form) (Triticum aestivum); test: higher affinity than Ta1-SST S1; assayed oligonucleotide may be longer; details: tags: C-terminal 6xHis-tagged CELD cellulase reporter fusion
T1 chain: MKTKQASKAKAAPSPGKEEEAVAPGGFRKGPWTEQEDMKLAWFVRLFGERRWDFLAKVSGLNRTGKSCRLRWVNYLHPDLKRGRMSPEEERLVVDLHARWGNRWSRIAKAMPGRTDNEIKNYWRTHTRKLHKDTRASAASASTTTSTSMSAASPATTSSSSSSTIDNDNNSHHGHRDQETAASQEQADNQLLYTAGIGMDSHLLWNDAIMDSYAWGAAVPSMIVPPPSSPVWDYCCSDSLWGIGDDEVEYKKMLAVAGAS
Description: (§1) The DNA-binding activity of TaMYB13-CELD was measured as described previously (Xue, 2002a) using streptavidin-coated 96-well plate and binding/washing buffer (25 mM HEPES/KOH, pH 7.0, 50 mM KCl, 0.2 mM EDTA and 0.5 mM DTT) containing 0.15 µg µl^-1 shared herring sperm DNA, 0.3 mg ml^-1 bovine, serum albumin, 10% glycerol and 0.025% Nonidet P-40. 40,000 fluorescent units h^-1 of the CELD activity of TaMYB13-CELD protein and 2 pmol of biotinylated probes were used per assay. The cellulase activity of TaMYB13-CELD proteins bound to immobilised biotinylated probes was assayed by incubation in 100 μl of the CELD substrate solution [1 mM methylumbelliferyl β-D-cellobioside (MUC) in 50 mM Na-citrate buffer, pH 6.0] at 40° C. for 3 h. A biotin-labelled double-stranded oligonucleotide without a TaMYB13 binding site was used as a control of background activity.

[2] = target: T1, TaMYB13-1 (correctly spliced form); test: assayed oligonucleotide may be longer; details: tags: C-terminal 6xHis-tagged CELD cellulase reporter fusion
[3] = target: T1, TaMYB13-1 (correctly spliced form); test: relative to SynO2m14; details: tags: C-terminal 6xHis-tagged CELD cellulase reporter fusion; label: biotin
[4] = target: T1, TaMYB13-1 (correctly spliced form); test: no or negligible activity; did not compete with SynO2m14; details: tags: C-terminal 6xHis-tagged CELD cellulase reporter fusion; label: biotin
Description: (§2) The DNA-binding activity of TaMYB13-CELD was measured as described previously (Xue, 2002a) using streptavidin-coated 96-well plate and binding/washing buffer (25 mM HEPES/KOH, pH 7.0, 50 mM KCl, 0.2 mM EDTA and 0.5 mM DTT) containing 0.15 µg µl^-1 shared herring sperm DNA, 0.3 mg ml^-1 bovine, serum albumin, 10% glycerol and 0.025% Nonidet P-40. 40,000 fluorescent units h^-1 of the CELD activity of TaMYB13-CELD protein and 2 pmol of biotinylated probes were used per assay. […]
(§3) Binding site competition assays were as described by Xue (2002). […] Relative TaMYB13 binding activity was expressed as fluorescence units (FU) of methylumbelliferyl group generated from MUC hydrolysis by TaMYB13-CELD that bound to an immobilised biotin-labelled probe after 3-h incubation of cellulase assay.
(§4) To further analyse the relative binding affinity of the previously reported plant R2R3 MYB protein sites in relation to the preferred TaMYB13-binding site, a binding site competition analysis was performed. Relative TaMYB13 binding activity to three biotin-labelled probes (SynO2m14, MYB.Ph3-II and MRE2) was assessed in combination with or without one of the four unlabelled competitors in a 2.5-fold amount: SynO2m14, MYB.Ph3-II, MRE2 and AC-I. The addition of a 2.5-fold amount of unlabelled SynO2m14 to biotin-labelled SynO2m14 reduced the TaMYB13 binding activity by about 60%. […]

[5] = target: T1, TaMYB13-1 (correctly spliced form); test: CELD reporter plate assay, 25 mM HEPES pH 7.0, 50 mM KCl; self-competition at 2.5x reduced binding about 60%; details: tags: C-terminal 6xHis-tagged CELD cellulase reporter fusion; label: biotin
Description: as §2, §3, §4

[6] = target: T1, TaMYB13-1 (correctly spliced form); test: no or negligible activity, relative to SynO2m14; details: tags: C-terminal 6xHis-tagged CELD cellulase reporter fusion; label: biotin
[7] = target: T1, TaMYB13-1 (correctly spliced form); test: background control; details: tags: C-terminal 6xHis-tagged CELD cellulase reporter fusion; label: biotin
Description: as §1

[8] = target: T1, TaMYB13-1 (correctly spliced form); test: CELD reporter assay; positive control; details: tags: C-terminal 6xHis-tagged CELD cellulase reporter fusion; label: biotin
Description: as §1

[9] = target: T1, TaMYB13-1 (correctly spliced form); test: higher affinity than S3; assayed oligonucleotide may be longer; details: tags: C-terminal 6xHis-tagged CELD cellulase reporter fusion
Description: as §1

[10] = target: T1, TaMYB13-1 (correctly spliced form); test: no or negligible activity; details: tags: C-terminal 6xHis-tagged CELD cellulase reporter fusion; label: biotin

B1: Ta1-SST S2 site (dsDNA)
DNA 1: ATGTTCGGTAA
DNA 2: TTACCGAACAT
- binding result [1]: binds

B2: Hv6-SFT S1 site (dsDNA)
DNA 1: TATGTTAGGTAC
DNA 2: GTACCTAACATA
- binding result [2]: binds

B3: AC-III (dsDNA)
DNA 1: TCGAGGGAATAAAGTTAGGTTATGATGT
DNA 2: ACATCATAACCTAACTTTATTCCCTCGA
- binding result [3]: binds

B4: AC-I (rev-comp) (dsDNA)
DNA 1: TCGAGGGAATAAGGTAGGTGGATGATGT
DNA 2: ACATCATCCACCTACCTTATTCCCTCGA
- binding result [4]: no binding

B5: SynO2m14 (dsDNA)
DNA 1: TCGAGGGAATAAAGTTAGGTAAGATGT
DNA 2: ACATCTTACCTAACTTTATTCCCTCGA
- binding result [5]: binds

B6: MYB.Ph3-I (dsDNA)
DNA 1: TCGAGGGAATAAAAACGGTTATGATGT
DNA 2: ACATCATAACCGTTTTTATTCCCTCGA
- binding result [6]: no binding

B7: control without TaMYB13 site (dsDNA)
DNA 1: GAGAATTTGCCGTTTATCTAGAAATTACCT
DNA 2: AGGTAATTTCTAGATAAACGGCAAATTCTC
- binding result [7]: no binding

B8: SynO2 (dsDNA)
DNA 1: TCGACCGAATAAAGTTTGGTATGATGT
DNA 2: ACATCATACCAAACTTTATTCGGTCGA
- binding result [8]: binds

B9: Ta6-SFT1 S1 site (dsDNA)
DNA 1: TGTTAGGTTCGGTT
DNA 2: AACCGAACCTAACA
- binding result [9]: binds

B10: MRE (rev-comp) (dsDNA)
DNA 1: TCGAGGGAATAATTTTTGGTTTGATGT
DNA 2: ACATCAAACCAAAAATTATTCCCTCGA
- binding result [10]: no binding
